Values of other authors in paper PMC8687316.

Biological target: p53 (Homo sapiens) (UniProt P04637)
Sequence (P04637 whole entry): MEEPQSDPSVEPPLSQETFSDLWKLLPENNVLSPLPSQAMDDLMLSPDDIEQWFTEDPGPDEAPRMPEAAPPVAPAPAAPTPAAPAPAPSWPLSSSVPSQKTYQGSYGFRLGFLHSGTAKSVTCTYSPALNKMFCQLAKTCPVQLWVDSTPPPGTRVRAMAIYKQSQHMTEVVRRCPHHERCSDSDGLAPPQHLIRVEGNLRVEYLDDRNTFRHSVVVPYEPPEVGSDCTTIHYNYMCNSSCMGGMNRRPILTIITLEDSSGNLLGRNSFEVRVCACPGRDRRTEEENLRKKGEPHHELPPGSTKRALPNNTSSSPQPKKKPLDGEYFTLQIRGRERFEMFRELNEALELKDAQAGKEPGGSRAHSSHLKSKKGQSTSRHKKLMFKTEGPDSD

Mdm2, sequence (Q00987 whole entry): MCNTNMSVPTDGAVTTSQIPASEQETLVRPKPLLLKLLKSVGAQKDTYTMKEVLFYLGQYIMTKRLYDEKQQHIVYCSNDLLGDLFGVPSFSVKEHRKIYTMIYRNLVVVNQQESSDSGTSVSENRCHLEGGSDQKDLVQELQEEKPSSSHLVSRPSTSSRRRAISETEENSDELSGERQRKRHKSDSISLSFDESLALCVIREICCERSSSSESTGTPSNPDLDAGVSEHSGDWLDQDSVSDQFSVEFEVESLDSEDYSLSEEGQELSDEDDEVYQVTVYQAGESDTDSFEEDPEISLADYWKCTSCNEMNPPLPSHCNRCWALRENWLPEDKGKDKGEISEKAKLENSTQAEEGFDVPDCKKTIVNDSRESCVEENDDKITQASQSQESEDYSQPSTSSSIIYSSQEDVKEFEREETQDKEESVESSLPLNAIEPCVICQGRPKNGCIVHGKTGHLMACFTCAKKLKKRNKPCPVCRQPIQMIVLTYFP

Mdm2 (from UniProt Q00987)
Kd: 1.44 nM
